Biological target: human EGFR, C-terminal eGFP-tagged, on CHO-K1 cells (human, UniProt P00533 25-1210)
Assay: cell-based or functional assay

Binder | EC50 CHO-K1 EGFR Low (nM); T cell activation bioassay, luciferase [nM] | EC50 CHO-K1 EGFR Med (nM); T cell activation bioassay, luciferase [nM]
GOMP001_bsAb_014 (bispecific antibody, human IgG1, kappa, L234A L235A) heavy 1: QVQLVQSGAEVKKPGASVKVSCKASGYTFTSYDINWVRYATGQGLEWMGWMNPKSGKTGYAQKFQGRITMTRNTPISTVYMDLSSLRSEDTAVYYCAREGHYDFWTGYYSFDYWGRGTLVTVSSASTKGPSVFPLAPSSKSTSGGTAALGCLVKDYFPEPVTVSWNSGALTSGVHTFPAVLQSSGLYSLSSVVTVPSSSLGTQTYICNVNHKPSNTKVDKKVEPKSCDKTHTCPPCPAPEAAGGPSVFLFPPKPKDTLMISRTPEVTCVVVDVSHEDPEVKFNWYVDGVEVHNAKTKPREEQYNSTYRVVSVLTVLHQDWLNGKEYKCKVSNKALPAPIEKTISKAKGQPRRPRVYTLPPSREEMTKNQVSLVCLVKGFYPSDIAVEWESNGQPENNYKTTPPVLDSDGSFFLYSVLTVDKSRWQQGNVFSCSVMHEALHNHYTQKSLSLSPG light 1: DIQMTQSPSSLSASVGDRVTITCRASQGIRNDLGWYQRTPGDAPKRLIYAASSLQSGVPSRFSGSGSGTEFTLTISSLQPEDFATYYCLQHYSYPYTFGQGTKLEIKRTVAAPSVFIFPPSDEQLKSGTASVVCLLNNFYPREAKVQWKVDNALQSGNSQESVTEQDSKDSTYSLSSTLTLSKADYEKHKVYACEVTHQGLSSPVTKSFNRGEC heavy 2: QVQLVQSGAEVKKPGASVKVSCKASGYTFTSHWMHWVRYAPGQGLEWIGEFNPSNGRTNYNEKFKSKATMTVDTSTNTAYMELSSLRSEDTAVYYCASRDYDYDGRYFDYWGRGTLVTVSSASTKGPSVFPLAPSSKSTSGGTAALGCLVKDYFPEPVTVSWNSGALTSGVHTFPAVLQSSGLYSLSSVVTVPSSSLGTQTYICNVNHKPSNTKVDKKVEPKSCDKTHTCPPCPAPEAAGGPSVFLFPPKPKDTLMISRTPEVTCVVVDVSHEDPEVKFNWYVDGVEVHNAKTKPREEQYNSTYRVVSVLTVLHQDWLNGKEYKCKVSNKALPAPIEKTISKAKGQPRRPRVYTLPPSREEMTKNQVSLVCLVKGFYPSDIAVEWESNGQPENNYKTTPPVLDSDGSFFLYSVLTVDKSRWQQGNVFSCSVMHEALHNHYTQKSLSLSPG light 2: DIQMTQSPSSLSASVGDRVTITCSASSSVTYMYWYQRKPGDAPKLLIYDTSNLASGVPSRFSGSGSGTDYTFTISSLQPEDIATYYCQQWSSHIFTFGQGTKVEIKRTVAAPSVFIFPPSDEQLKSGTASVVCLLNNFYPREAKVQWKVDNALQSGNSQESVTEQDSKDSTYSLSSTLTLSKADYEKHKVYACEVTHQGLSSPVTKSFNRGEC | 0.238 | 0.0722
GOMP001_bsAb_015 (bispecific antibody, human IgG1, kappa, L234A L235A) heavy 1: QVQLVQSGAEVKKPGASVKVSCKASGYTFTSHWMHWVRKAPGQGLEWIGEFNPSNGRTNYNEEFKSKATMTVDTSTNTAYMELSSLRSEDTAVYYCASRDYDYDGRYFDYWGQGTLVTVSSASTKGPSVFPLAPSSKSTSGGTAALGCLVADYFPEPVTVSWNSGALTSGVHTFPAVLQSSGLYSLSSVVTVPSSSLGTQTYICNVNHKPSNTKVDEKVEPKSCDKTHTCPPCPAPEAAGGPSVFLFPPKPKDTLMISRTPEVTCVVVDVSHEDPEVKFNWYVDGVEVHNAKTKPREEQYNSTYRVVSVLTVLHQDWLNGKEYKCKVSNKALPAPIEKTISKAKGQPREPQVYTLPPSREEMTDNQVSLTCLVKGFYPSDIAVEWESNGQPENNYKTTPPVLMSDGSFFLASKLTVDKSRWQQGNVFSCSVMHEALHNHYTQKSLSLSPG light 1: RIQMTQSPSSLSASVGDRVTITCSASSSVTYMYWYQDKPGKAPKLLIYDTSNLASGVPSRFSGSGSGTDYTFTISSLQPEDIATYYCQQWSSHIFTFGQGTKVEIKRTVAAPSVFIFPPSDKQLKSGTARVVCLLNNFYPREAKVQWKVDNALQSGNSQESVTEQDSKDSTYSLSSTLTLSKADYEKHKVYACEVTHQGLSSPVTKSFNRGEC heavy 2: QVQLVESGGGVVQPGRSLRLSCAASGFTFSGYGMHWVRYAPGKGLDWVAIIYYNGNNKYYADRVKGRFTISRDNSKNTLYLQMNSLRAEDTAVYYCARGGGYNWFDPWGRGTLVIVSSASTKGPSVFPLAPSSKSTSGGTAALGCLVKDYFPEPVTVSWNSGALTSGVHTFPAVLQSSGLYSLSSVVTVPSSSLGTQTYICNVNHKPSNTKVDKKVEPKSCDKTHTCPPCPAPEAAGGPSVFLFPPKPKDTLMISRTPEVTCVVVDVSHEDPEVKFNWYVDGVEVHNAKTKPREEQYNSTYRVVSVLTVLHQDWLNGKEYKCKVSNKALPAPIEKTISKAKGQPRRPRVYTLPPSREEMTKNQVSLVCLVKGFYPSDIAVEWESNGQPENNYKTTPPVLDSDGSFFLYSVLTVDKSRWQQGNVFSCSVMHEALHNHYTQKSLSLSPG light 2: not shown | 0.515 | 0.0267

Source: US20230295310A1 (ABCELLERA BIOLOGICS, published 2023)
